For one protein, Vmax and Km results are on record in ChEMBL document CHEMBL4196070, “Development of Piperazinediones as dual inhibitor for treatment of Alzheimer's disease” (Eur J Med Chem, 2018).

Compound in data set [1]: O=C1C(c2ccccc2)N(S(=O)(=O)c2ccc(Cl)cc2)C(=O)C(c2ccccc2)N1S(=O)(=O)c1ccc(Cl)cc1
Briefly: (§1) Competitive inhibition of human MMP2 assessed as Vmax for substrate at 60 nM preincubated for 60 mins followed by Mca-Pro-Leu-Gly-Leu-Dpa-Ala-Arg-NH substrate addition by Lineweaver-Burk plot analysis (reference value: 3.4 to 3.6 nM/min).

Compound in data set [2]: O=C1C(Cc2ccccc2)N(S(=O)(=O)c2ccc(Cl)cc2)C(=O)C(Cc2ccccc2)N1S(=O)(=O)c1ccc(Cl)cc1
The description is as §1.

Compound in data set [3]: O=C1C(c2ccccc2)N(S(=O)(=O)c2ccc(Cl)cc2)C(=O)C(c2ccccc2)N1S(=O)(=O)c1ccc(Cl)cc1
Briefly: (§2) Competitive inhibition of human MMP2 assessed as Km for substrate at 60 nM preincubated for 60 mins followed by Mca-Pro-Leu-Gly-Leu-Dpa-Ala-Arg-NH substrate addition by Lineweaver-Burk plot analysis (reference value: 10 to 25 nM).

Compound in data set [4]: O=C1C(Cc2ccccc2)N(S(=O)(=O)c2ccc(Cl)cc2)C(=O)C(Cc2ccccc2)N1S(=O)(=O)c1ccc(Cl)cc1
The description is as §2.

Compound in data set [5]: O=C1C(c2ccccc2)N(S(=O)(=O)c2ccc(Cl)cc2)C(=O)C(c2ccccc2)N1S(=O)(=O)c1ccc(Cl)cc1
As to the kind of experiment: (§3) Competitive inhibition of human MMP2 assessed as Vmax for substrate at 100 nM preincubated for 60 mins followed by Mca-Pro-Leu-Gly-Leu-Dpa-Ala-Arg-NH substrate addition by Lineweaver-Burk plot analysis (reference value: 3.4 to 3.6 nM/min).

Compound in data set [6]: O=C1C(Cc2ccccc2)N(S(=O)(=O)c2ccc(Cl)cc2)C(=O)C(Cc2ccccc2)N1S(=O)(=O)c1ccc(Cl)cc1
The data set is described as §3.

Compound in data set [7]: O=C1C(c2ccccc2)N(S(=O)(=O)c2ccc(Cl)cc2)C(=O)C(c2ccccc2)N1S(=O)(=O)c1ccc(Cl)cc1
As to the kind of experiment: (§4) Competitive inhibition of human MMP2 assessed as Km for substrate at 100 nM preincubated for 60 mins followed by Mca-Pro-Leu-Gly-Leu-Dpa-Ala-Arg-NH substrate addition by Lineweaver-Burk plot analysis (reference value: 10 to 25 nM).

Compound in data set [8]: O=C1C(Cc2ccccc2)N(S(=O)(=O)c2ccc(Cl)cc2)C(=O)C(Cc2ccccc2)N1S(=O)(=O)c1ccc(Cl)cc1
The data set is described as §4.

B1: 72 kDa type IV collagenase (Homo sapiens), P08253 (protein)
chain: MEALMARGALTGPLRALCLLGCLLSHAAAAPSPIIKFPGDVAPKTDKELAVQYLNTFYGCPKESCNLFVLKDTLKKMQKFFGLPQTGDLDQNTIETMRKPRCGNPDVANYNFFPRKPKWDKNQITYRIIGYTPDLDPETVDDAFARAFQVWSDVTPLRFSRIHDGEADIMINFGRWEHGDGYPFDGKDGLLAHAFAPGTGVGGDSHFDDDELWTLGEGQVVRVKYGNADGEYCKFPFLFNGKEYNSCTDTGRSDGFLWCSTTYNFEKDGKYGFCPHEALFTMGGNAEGQPCKFPFRFQGTSYDSCTTEGRTDGYRWCGTTEDYDRDKKYGFCPETAMSTVGGNSEGAPCVFPFTFLGNKYESCTSAGRSDGKMWCATTANYDDDRKWGFCPDQGYSLFLVAAHEFGHAMGLEHSQDPGALMAPIYTYTKNFRLSQDDIKGIQELYGASPDIDLGTGPTPTLGPVTPEICKQDIVFDGIAQIRGEIFFFKDRFIWRTVTPRDKPMGPLLVATFWPELPEKIDAVYEAPQEEKAVFFAGNEYWIYSASTLERGYPKPLTSLGLPPDVQRVDAAFNWSKNKKTYIFAGDKFWRYNEVKKKMDPGFPKLIADAWNAIPDNLDAVVDLQGGGHSYFFKGAYYLKLENQSLKSVKFGSIKSDWLGC
On to B1, for which the Vmax (usually the top rate of the reaction or transport when substrate is in excess) in data set [1] was 3.4 nM/min; in data set [2] it was 3.6 nM/min; in data set [5], 3.4 nM/min; in data set [6], 3.6 nM/min. For the same protein, the Km (in general, the concentration of substrate that gives half-maximal velocity) worked out at 0.036 µM in data set [3], 0.024 µM in data set [4], 0.07 µM in data set [7] and 0.048 µM in data set [8].
